{"source": "the RNAGym collection of RNA variant scans (doi:10.1073/pnas.2313332121)", "parents": {"B1": {"name": "TPR t1 (parent)", "chain": "GACCAAUCUGCCCUCAGAGCUCGAGAACAUCUUCGGAUGCAGAGGAGGCAGGCUUCGGUGGCGCGAUAGCGCCAACGUCCUCAACCUCCAAUGCAUCCCACCACAUGAUGAUGCCUGAAGAGCCUUGGUUUUUUG"}}, "data": [{"variants_of": "B1", "assay": "polymerase ribozyme fitness, log enrichment relative to wild type (log ratio); higher = more active; in vitro selection for triplet polymerase activity", "in_short": "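After PCR construction and transcription, each subunit's mutant library from a heterodimeric triplet polymerase ribozyme was annealed with a biotinylated primer, the partner subunit and triplets. Incubation was frozen, at −7 °C, and extended constructs were gel-excised, bound to streptavidin beads and amplified by RT-PCR, in one selection round done in triplicate. Fitness is the logarithm of a genotype's enrichment divided by that of the wild type, from inverse-variance-weighted replicate averages of Illumina-sequenced inputs and outputs. The base of the logarithm is 2, and genotypes needed ≥10 input reads and ≥1 read per output.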", "values": [{"variant": "G17A A84C U87A U96G", "polymerase ribozyme fitness (log ratio)": -4.16}, {"variant": "A16G U109C", "polymerase ribozyme fitness (log ratio)": -5.19}, {"variant": "G17C A83G U116G", "polymerase ribozyme fitness (log ratio)": -5.65}, {"variant": "G17A A84U", "polymerase ribozyme fitness (log ratio)": -2.87}, {"variant": "A16C U55G C123G", "polymerase ribozyme fitness (log ratio)": -0.307}, {"variant": "A16C U112G", "polymerase ribozyme fitness (log ratio)": -2.88}, {"variant": "G17A C115U U116C", "polymerase ribozyme fitness (log ratio)": -6.73}, {"variant": "C15U G110A", "polymerase ribozyme fitness (log ratio)": -2.25}, {"variant": "A16C C73G U116C G135U", "polymerase ribozyme fitness (log ratio)": -3.68}, {"variant": "A16G G42C A43C C123A", "polymerase ribozyme fitness (log ratio)": -3.43}, {"variant": "G17A C28G G48A U96G A100G U112G A121C", "polymerase ribozyme fitness (log ratio)": -6.43}, {"variant": "A16U G61U G135U", "polymerase ribozyme fitness (log ratio)": -1.98}, {"variant": "A16U C70A U116C U130G", "polymerase ribozyme fitness (log ratio)": -2.69}, {"variant": "A16C G44U G69U U125G", "polymerase ribozyme fitness (log ratio)": -2.18}, {"variant": "G17A C70A", "polymerase ribozyme fitness (log ratio)": -4.58}, {"variant": "A16U A95C", "polymerase ribozyme fitness (log ratio)": -2.59}, {"variant": "C15U G128C", "polymerase ribozyme fitness (log ratio)": -3.18}, {"variant": "A16U G58A C62A", "polymerase ribozyme fitness (log ratio)": -3.9}, {"variant": "G17A C85U A91C A108G A111C C124U", "polymerase ribozyme fitness (log ratio)": -6.83}, {"variant": "A16U U55C", "polymerase ribozyme fitness (log ratio)": -2.11}, {"variant": "A16G G77A A111G G113A A118G", "polymerase ribozyme fitness (log ratio)": -3.63}, {"variant": "A16C G77U A119G", "polymerase ribozyme fitness (log ratio)": 0.8}, {"variant": "A16G C56A C72A C86G G110A U112A", "polymerase ribozyme fitness (log ratio)": -3.93}, {"variant": "A16G G57C C98U U112A G128C", "polymerase ribozyme fitness (log ratio)": -5.3}, {"variant": "A16C U132A", "polymerase ribozyme fitness (log ratio)": -2.47}, {"variant": "G17A C34U C98U C124A", "polymerase ribozyme fitness (log ratio)": -5.98}, {"variant": "C15U U38A G60U A83G", "polymerase ribozyme fitness (log ratio)": -2.98}, {"variant": "C15U U78A C86G", "polymerase ribozyme fitness (log ratio)": -3.29}, {"variant": "A16U G52U U78C A111C U126G G127U", "polymerase ribozyme fitness (log ratio)": -3.36}, {"variant": "A16C G77C G120U C123U", "polymerase ribozyme fitness (log ratio)": -2.57}, {"variant": "A16U A105C G120U", "polymerase ribozyme fitness (log ratio)": -3.61}, {"variant": "A16U C64U", "polymerase ribozyme fitness (log ratio)": -1.71}, {"variant": "A16U U32A A46U A66C A103C A111G", "polymerase ribozyme fitness (log ratio)": -7.56}, {"variant": "G17C A29G", "polymerase ribozyme fitness (log ratio)": -4.75}, {"variant": "G17C A29U", "polymerase ribozyme fitness (log ratio)": -6.04}, {"variant": "G17A U21A G36U A41U A84C C97U C124A", "polymerase ribozyme fitness (log ratio)": -6.13}, {"variant": "C15U U78C C79G C124G U131A", "polymerase ribozyme fitness (log ratio)": 0.897}, {"variant": "A16G G93A", "polymerase ribozyme fitness (log ratio)": -2.61}, {"variant": "A16U G45A A90G U96A U112G A118C", "polymerase ribozyme fitness (log ratio)": -3.03}, {"variant": "G17C C72U C101A C115A C123A", "polymerase ribozyme fitness (log ratio)": -5.23}, {"variant": "G17C A43G C101A C104A U106A U112G U126C", "polymerase ribozyme fitness (log ratio)": -6.47}, {"variant": "C15U G57U C72U C82A A111C A118G", "polymerase ribozyme fitness (log ratio)": -1.91}, {"variant": "G17C C22G G61U", "polymerase ribozyme fitness (log ratio)": -6.24}, {"variant": "A16U C56G G63U C101U", "polymerase ribozyme fitness (log ratio)": -4.93}, {"variant": "A16U G45C C53G A90G G113A A121C", "polymerase ribozyme fitness (log ratio)": -4.47}, {"variant": "A16U C31U", "polymerase ribozyme fitness (log ratio)": -4.77}, {"variant": "A16G C97G U116C", "polymerase ribozyme fitness (log ratio)": -2.75}, {"variant": "C15U G71A", "polymerase ribozyme fitness (log ratio)": -2.11}, {"variant": "C15U G71C", "polymerase ribozyme fitness (log ratio)": -1.05}, {"variant": "A16G A29U C40A G61U", "polymerase ribozyme fitness (log ratio)": -4.63}, {"variant": "G17C C49A", "polymerase ribozyme fitness (log ratio)": -4.92}, {"variant": "A16U G69U G77A U116A", "polymerase ribozyme fitness (log ratio)": -1.32}, {"variant": "A16U C53G G93C C123A", "polymerase ribozyme fitness (log ratio)": -1.64}, {"variant": "G17A", "polymerase ribozyme fitness (log ratio)": -2.59}, {"variant": "G17C", "polymerase ribozyme fitness (log ratio)": -3.67}, {"variant": "G17A C72G U96A", "polymerase ribozyme fitness (log ratio)": -4.81}, {"variant": "A16U G69U C80G A90C", "polymerase ribozyme fitness (log ratio)": -6.49}, {"variant": "G17A C123A", "polymerase ribozyme fitness (log ratio)": -3.08}, {"variant": "G17C G48U G60A C89G C102A C114A", "polymerase ribozyme fitness (log ratio)": -6.76}, {"variant": "C15U G52A", "polymerase ribozyme fitness (log ratio)": -1.6}, {"variant": "C15U G135U", "polymerase ribozyme fitness (log ratio)": -2.12}, {"variant": "C15U U21A G63U", "polymerase ribozyme fitness (log ratio)": -2.12}, {"variant": "A16U A84U A100U C124A U129G", "polymerase ribozyme fitness (log ratio)": -0.308}, {"variant": "G17A C56A G93U", "polymerase ribozyme fitness (log ratio)": -4.99}, {"variant": "A16U U55A U81A A84C U132A", "polymerase ribozyme fitness (log ratio)": -2.61}, {"variant": "A16G G60A G120C", "polymerase ribozyme fitness (log ratio)": -0.306}, {"variant": "A16G G71U", "polymerase ribozyme fitness (log ratio)": -0.398}, {"variant": "A16U C53G U59C U96G U112A G128C", "polymerase ribozyme fitness (log ratio)": -3.81}, {"variant": "A16G A18C U54G A121G", "polymerase ribozyme fitness (log ratio)": 0.49}, {"variant": "G17A U129A", "polymerase ribozyme fitness (log ratio)": -4.6}, {"variant": "G17C G36C C114G U131G", "polymerase ribozyme fitness (log ratio)": -4.72}, {"variant": "G17A G69U A118G", "polymerase ribozyme fitness (log ratio)": 0.157}, {"variant": "G17A C101G", "polymerase ribozyme fitness (log ratio)": -5.5}, {"variant": "A16U C88U", "polymerase ribozyme fitness (log ratio)": -1.68}, {"variant": "C15U G52A C62U A74U A83U U132A", "polymerase ribozyme fitness (log ratio)": -3.97}, {"variant": "C15U G60A U81G C82G A119G G120U C123A", "polymerase ribozyme fitness (log ratio)": -1.78}, {"variant": "A16U G36A G44U A83C", "polymerase ribozyme fitness (log ratio)": -5.08}, {"variant": "C15U U54A A105U U112C", "polymerase ribozyme fitness (log ratio)": -2.79}, {"variant": "A16U A37U C56G", "polymerase ribozyme fitness (log ratio)": -3.71}, {"variant": "G17A A91C C124A U132A", "polymerase ribozyme fitness (log ratio)": -0.557}, {"variant": "C15U G60C G117A", "polymerase ribozyme fitness (log ratio)": 0.583}, {"variant": "A16U C64U U87A U112A A118G", "polymerase ribozyme fitness (log ratio)": -2.35}, {"variant": "C15U G58A G61U", "polymerase ribozyme fitness (log ratio)": -1.4}, {"variant": "G17C C56G U96A", "polymerase ribozyme fitness (log ratio)": -5.36}]}]}
